Assay results: article PMC3834884, “A fully caninised anti-NGF monoclonal antibody for pain relief in dogs” (BMC Veterinary Research, 2013)

Key:
[1] = molecular target: T1, mouse nerve growth factor (muNGF) (Mus musculus, UniProt P01139); test: SPR; ProteOn XPR36, GLM chip; muNGF amine-coupled (50 ug/mL, sodium acetate pH 4.5); NV-01 passed over at 500, 250, 125, 62.5 and 31.25 nM for 60 s; Langmuir fit; conditions: both partners purified
T1 construct: mouse beta nerve growth factor; also called mouse NGF; murine NGF; source: bought: Biosensis (purified mouse NGF)
T1 sequence (P01139 122-241): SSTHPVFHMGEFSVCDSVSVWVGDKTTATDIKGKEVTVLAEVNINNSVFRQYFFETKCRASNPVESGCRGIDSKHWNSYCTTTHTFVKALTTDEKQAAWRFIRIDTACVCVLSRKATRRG

[2] = molecular target: T1, mouse nerve growth factor (muNGF); test: cell-based or functional assay
[3] = molecular target: T1, mouse nerve growth factor (muNGF); test: ELISA; plates coated with NGF (0.1 ug/ml muNGF; canine NGF in Figure 2A), blocked with 5% BSA/PBS; CHO cell supernatants with canine anti-NGF IgG 1 h at room temperature in PBS/1% BSA; detected with rabbit anti-canine IgG-HRP; conditions: one partner purified
[4] = molecular target: T2, canine nerve growth factor with a C-terminal poly-His tag (Canis lupus familiaris, UniProt A0A8I3PYI3); test: as above; conditions: one partner purified
T2 construct: canine beta NGF, expressed from a cDNA that encodes canine pre-pro beta NGF; the mature form is surmised; also called canine NGF; caNGF; source: HEK293 cells, transient transfection, purified from supernatant (Ni-HiTrap); not shown: poly-His, C-terminal, kept

Binder | Kd [1] [pM] | IC50 of inhibition of NGF-induced proliferation of TF-1 cells (1 ng/ml NGF; NV-01 2.5 ng/ml to 0.002 ng/ml); blocked: NGF and its receptor on TF-1 cells [2] [ng/mL] | binding result [3] | binding result [4]
NV-01 (caN2-HCA1-kLC1), fully caninised anti-NGF monoclonal antibody (antibody, V domains shown, caN2 heavy chain variable domain (caninised rat alphaD11 VH, modified framework); caninised alphaD11 light chain variable domain (caN-kLC1); canine kappa light chain constant domain; Canine IgG-A, kappa; also called caninised anti-NGF mAb; copies: 2 + 2) VH: EVQLVESGGGLVQPGGSLRLSCVASGFSLTNNNVNWVRQAPGKGLEWVGGVWAGGATDYNSALKSRFTISRDNAKNTVFLQMHSLRSEDTAVYYCARDGGYSSSTLYAMDAWGQGTSVTVSS VL: DIVMTQSPASLSLSQGETVTITCRASEDIYNALAWYQQKPGQAPKLLIYNTDTLHTGVPSRFSGSGSGTDFSLTISSLEPEDVAVYYCQHYFHYPRTFGQGTKVELK | < 1 | 0.02 |  | 
caN-HCD2 + kLC1, caninised anti-NGF antibody with canine IgG heavy chain isotype D (antibody, V domains shown, caN heavy chain variable domain (first caninised alphaD11 VH); as the light chain variable domain of m1 (caN-kLC1); canine kappa light chain constant domain; Canine IgG-D, kappa; also called caN-HCD + kLC; ca-HCD2 + kLC1; source: CHO cells, transient transfection, supernatant; purified using Protein L) VH: EVQLVESGGDLVNPGGTLTLSCVVSGFSLTNNNVNWVRQALGRGLEWVGGVWAGGATDYNSALKSRLTITRDTSKSTVFLKMHSLQSEDTATYYCARDGGYSSSTLYAMDAWGQGTLVTVSS VL: DIVMTQSPASLSLSQGETVTITCRASEDIYNALAWYQQKPGQAPKLLIYNTDTLHTGVPSRFSGSGSGTDFSLTISSLEPEDVAVYYCQHYFHYPRTFGQGTKVELK |  |  | binds | 
caN-HCA1 + kLC1, caninised anti-NGF antibody with canine IgG heavy chain isotype A (antibody, V domains shown, caN heavy chain variable domain (first caninised alphaD11 VH); as the light chain variable domain of m1 (caN-kLC1); canine kappa light chain constant domain; Canine IgG-A, kappa; also called caN-HCA + kLC; type A anti-NGF antibody; source: CHO cells, transient transfection, supernatant; purified using Protein L) VH: EVQLVESGGDLVNPGGTLTLSCVVSGFSLTNNNVNWVRQALGRGLEWVGGVWAGGATDYNSALKSRLTITRDTSKSTVFLKMHSLQSEDTATYYCARDGGYSSSTLYAMDAWGQGTLVTVSS VL: DIVMTQSPASLSLSQGETVTITCRASEDIYNALAWYQQKPGQAPKLLIYNTDTLHTGVPSRFSGSGSGTDFSLTISSLEPEDVAVYYCQHYFHYPRTFGQGTKVELK |  |  | binds | 
caN-HCC1 + kLC1, caninised anti-NGF antibody with canine IgG heavy chain isotype C (antibody, V domains shown, caN heavy chain variable domain (first caninised alphaD11 VH); as the light chain variable domain of m1 (caN-kLC1); canine kappa light chain constant domain; Canine IgG-C, kappa; also called caN-HCC-kLC; type C anti-NGF antibody; source: CHO cells, transient transfection, supernatant; purified on Protein G) VH: EVQLVESGGDLVNPGGTLTLSCVVSGFSLTNNNVNWVRQALGRGLEWVGGVWAGGATDYNSALKSRLTITRDTSKSTVFLKMHSLQSEDTATYYCARDGGYSSSTLYAMDAWGQGTLVTVSS VL: DIVMTQSPASLSLSQGETVTITCRASEDIYNALAWYQQKPGQAPKLLIYNTDTLHTGVPSRFSGSGSGTDFSLTISSLEPEDVAVYYCQHYFHYPRTFGQGTKVELK |  |  | binds | 
caN-HCB2 + kLC1, caninised anti-NGF antibody with canine IgG heavy chain isotype B (antibody, V domains shown, caN heavy chain variable domain (first caninised alphaD11 VH); as the light chain variable domain of m1 (caN-kLC1); canine kappa light chain constant domain; Canine IgG-B, kappa; also called caN-HCB-kLC; type B anti-NGF antibody; source: CHO cells, transient transfection, supernatant; purified on protein A) VH: EVQLVESGGDLVNPGGTLTLSCVVSGFSLTNNNVNWVRQALGRGLEWVGGVWAGGATDYNSALKSRLTITRDTSKSTVFLKMHSLQSEDTATYYCARDGGYSSSTLYAMDAWGQGTLVTVSS VL: DIVMTQSPASLSLSQGETVTITCRASEDIYNALAWYQQKPGQAPKLLIYNTDTLHTGVPSRFSGSGSGTDFSLTISSLEPEDVAVYYCQHYFHYPRTFGQGTKVELK |  |  | binds | binds
